What was measured:
IKKα-His [1] = target: T1, IKKα-His (UniProt O15111); experiment: pull-down (in vitro RIP-qPCR); settings: SPR: 10 mM HEPES pH 7.4, 150 mM NaCl, 3 mM EDTA, 0.05% P20, 25 °C; pull-down: 25 mM HEPES pH 7.5, 150 mM NaCl, 0.05% NP-40, 10% glycerol, RT; EMSA: LightShift …
T1 sequence: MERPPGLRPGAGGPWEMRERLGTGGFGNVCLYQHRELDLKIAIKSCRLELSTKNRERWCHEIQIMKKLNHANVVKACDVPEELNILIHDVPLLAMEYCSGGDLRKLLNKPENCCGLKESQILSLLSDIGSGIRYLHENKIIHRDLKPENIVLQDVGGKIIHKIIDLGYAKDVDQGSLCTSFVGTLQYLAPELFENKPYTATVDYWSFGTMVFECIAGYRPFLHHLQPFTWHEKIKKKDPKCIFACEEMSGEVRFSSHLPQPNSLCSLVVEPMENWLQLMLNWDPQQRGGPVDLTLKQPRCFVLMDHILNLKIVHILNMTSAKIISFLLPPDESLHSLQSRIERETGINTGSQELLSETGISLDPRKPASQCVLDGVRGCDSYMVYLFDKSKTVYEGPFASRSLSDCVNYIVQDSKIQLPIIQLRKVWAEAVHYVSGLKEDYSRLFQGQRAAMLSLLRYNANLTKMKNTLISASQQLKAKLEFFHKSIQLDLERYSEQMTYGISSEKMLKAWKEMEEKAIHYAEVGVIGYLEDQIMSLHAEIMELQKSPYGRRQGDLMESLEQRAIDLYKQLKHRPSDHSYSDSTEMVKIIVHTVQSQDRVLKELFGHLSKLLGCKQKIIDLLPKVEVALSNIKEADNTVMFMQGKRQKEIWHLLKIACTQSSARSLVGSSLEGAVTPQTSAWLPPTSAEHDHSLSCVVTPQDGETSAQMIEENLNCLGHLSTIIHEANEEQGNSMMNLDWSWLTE

IKKα-His [2] = target: T1, IKKα-His; experiment: SPR; settings: SPR: 10 mM HEPES pH 7.4, 150 mM NaCl, 3 mM EDTA, 0.05% P20, 25 °C; pull-down: 25 mM HEPES pH 7.5, 150 mM NaCl, 0.05% NP-40, 10% glycerol, RT; EMSA: LightShift …
MBP-IKKα-6His = target: T2, MBP-IKKα-6His (UniProt O15111 1-745); experiment: SPR; biotin RNA immobilized on NeutrAvidin chip, protein analyte; text gives 6.09 ± 1.08 nM; SPR: 10 mM HEPES pH 7.4, 150 mM NaCl, 3 mM EDTA, 0.05% P20, 25 °C; pull-down: 25 mM HEPES pH 7.5, 150 mM NaCl, 0.05% NP-40, 10% glycerol, RT; EMSA: LightShift kit, 22 °C, 25 min; settings: protein: recombinant; tags: N-term MBP (pMAL-c5X), C-term His6; chain copies: 2; label: 5' biotin; hairpin
T2 sequence: T1 sequence

GST-NEMO = GST-NEMO (UniProt Q9Y6K9 1-419); experiment: SPR; biotin RNA immobilized; SPR: 10 mM HEPES pH 7.4, 150 mM NaCl, 3 mM EDTA, 0.05% P20, 25 °C; pull-down: 25 mM HEPES pH 7.5, 150 mM NaCl, 0.05% NP-40, 10% glycerol, RT; EMSA: LightShift kit, 22 °C, 25 min; settings: protein: recombinant; tags: GST; chain copies: 2; label: 5' biotin; hairpin
GST-NEMO, sequence (Q9Y6K9 whole entry): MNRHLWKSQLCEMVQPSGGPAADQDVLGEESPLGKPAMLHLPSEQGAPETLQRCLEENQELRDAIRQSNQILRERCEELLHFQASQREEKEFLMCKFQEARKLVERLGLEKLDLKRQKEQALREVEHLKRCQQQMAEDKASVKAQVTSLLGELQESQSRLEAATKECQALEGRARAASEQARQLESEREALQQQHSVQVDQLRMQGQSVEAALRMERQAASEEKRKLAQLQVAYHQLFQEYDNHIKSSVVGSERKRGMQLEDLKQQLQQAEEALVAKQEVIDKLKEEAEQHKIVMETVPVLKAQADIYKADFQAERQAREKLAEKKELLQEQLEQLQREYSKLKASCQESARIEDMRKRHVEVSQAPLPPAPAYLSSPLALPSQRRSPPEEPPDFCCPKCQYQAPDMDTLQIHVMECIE

GGGAGAUUGGAAUAACUUGCAGUGUCUUGCAGUAUUGUGAAACCAGCAACUUGUUCACAAUUCUUCUGAAUUUCUUGGGAAAUUUGAAGUGGAGUACCUGUACCAACAUGAAAUGACACGAAUUUAAGUGACGCUCAACAACGAAAAGCAAAAAGAACCAAAGAGGAAGCAACUGAAACAACAUCUGGAUGUAUUUAAAAAUAUACAAUGCCUCCAAAAUCAGGUGUCAUUAAUGAAAAUUCUGAAGAAAUG [DRAIC 705-950]
binding (IKKα-His [1]): binds

UUGGAAUAACUUGCAGUGCCAGCAACUUGUUCACAA [A+B DRAIC RNA]
Kd (IKKα-His [2]): 0.541 nM

UUGGAAUAACUUGCAGUGCCAGCAACUUGUUCACAA (structured_RNA) [5'-biotin A+B DRAIC RNA]
Kd (MBP-IKKα-6His): 6.29 ± 1.08 nM
binding result (GST-NEMO): no binding
